# Experimental data as given in patent publication US20260209355.
# T1: quenched fluorogenic peptide of the human CD28 stalk region (WT)
# T1 chain: KGKHLSPSPLFPGPSKPE
# T2: c-Myc conjugated and biotinylated human CD28 stalk region dimeric peptide (wild-type)
# T2 chain: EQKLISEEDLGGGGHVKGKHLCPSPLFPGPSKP
# T3: L145K mutated biotinylated and Myc tagged human CD28 stalk region dimeric peptide
# T3 chain: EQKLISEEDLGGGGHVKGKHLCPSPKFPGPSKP
# Legend:
# [1] = target: quenched fluorogenic peptide of the human CD28 stalk region with L145K
# [2] = target: T1, quenched fluorogenic peptide of the …
# [3] = target: T2, c-Myc conjugated and biotinylated human …
# [4] = target: T3, L145K mutated biotinylated and Myc …
protein,measurement,setting,value
Recombinant human MMP-2 (protein) YNFFPRKPKWDKNQITYRIIGYTPDLDPETVDDAFARAFQVWSDVTPLRFSRIHDGEADIMINFGRWEHGDGYPFDGKDGLLAHAFAPGTGVGGDSHFDDDELWTLGEGQVVRVKYGNADGEYCKFPFLFNGKEYNSCTDTGRSDGFLWCSTTYNFEKDGKYGFCPHEALFTMGGNAEGQPCKFPFRFQGTSYDSCTTEGRTDGYRWCGTTEDYDRDKKYGFCPETAMSTVGGNSEGAPCVFPFTFLGNKYESCTSAGRSDGKMWCATTANYDDDRKWGFCPDQGYSLFLVAAHEFGHAMGLEHSQDPGALMAPIYTYTKNFRLSQDDIKGIQELYGASPDIDLGTGPTPTLGPVTPEICKQDIVFDGIAQIRGEIFFFKDRFIWRTVTPRDKPMGPLLVATFWPELPEKIDAVYEAPQEEKAVFFAGNEYWIYSASTLERGYPKPLTSLGLPPDVQRVDAAFNWSKNKKTYIFAGDKFWRYNEVKKKMDPGFPKLIADAWNAIPDNLDAVVDLQGGGHSYFFKGAYYLKLENQSLKSVKFGSIKSDWLGC,"fluorescence from cleavage of quenched fluorogenic peptide (2.5 µM peptide, 30 ng enzyme)",[1],both were completely incapable of cleaving the mutant peptide
same,fluorescence from cleavage of quenched fluorogenic peptide,[2],MMP-2 cleaves the stalk domain peptide
same,"fluorescence from cleavage of quenched fluorogenic peptide (2.5 µM peptide, 30 ng enzyme)",[2],both enzymes efficiently cleaved the WT peptide
same,"fluorescence from cleavage of quenched fluorogenic peptide, titration of protease",[2],the cleavage of the peptide was dose dependent
same,"intact peptide by anti-Myc ELISA (25 and 50 ng enzyme, 5 hours)",[3],the WT peptide was cleaved in a dose dependent manner
same,"percent of peptide cleaved (intact peptide by anti-Myc ELISA, 25 and 50 ng enzyme, 5 hours)",[4],the mutated peptide was not substantially cleaved (<5%) by either MMP-2 or MMP-13
Recombinant human ADAM-10 (protein) TTSAEKNTCQLYIQTDHLFFKYYGTREAVIAQISSHVKAIDTIYQTTDFSGIRNISFMVKRIRINTTADEKDPTNPFRFPNIGVEKFLELNSEQNHDDYCLAYVFTDRDFDDGVLGLAWVGAPSGSSGGICEKSKLYSDGKKKSLNTGIITVQNYGSHVPPKVSHITFAHEVGHNFGSPHDSGTECTPGESKNLGQKENGNYIMYARATSGDKLNNNKFSLCSIRNISQVLEKKRNNCFVESGQPICGNGMVEQGEECDCGYSDQCKDECCFDANQPEGRKCKLKPGKQCSPSQGPCCTAQCAFKSKSEKCRDDSDCAREGICNGFTALCPASDPKPNFTDCNRHTQVCINGQCAGSICEKYGLEECTCASSDGKDDKELCHVCCMKKMDPSTCASTGSVQWSRHFSGRTITLQPGSPCNDFRGYCDVFMRCRLVDADGPLARLKKAIFSPELYENIAE,fluorescence from cleavage of quenched fluorogenic peptide,[2],ADAM-10 and ADAM-17 did not
